Measured values taken from US20260176619A1 (published 2026).

B1: L112-CD45 scFv (scFv)
scFv: EVQLVESGGDLVQPGRSLKLSCVASGFTFNNYWMTWIRQVPGKGLEWVASISSSGGSIYYPDSVKDRFTISRDNAKNTLFLQMNSLRSEDTATYYCARLYYYSGGGDAWGQGTSVTVSSGGGGSGGGGSGGGGSGGGGDIQMTQSPSFLSASVGDRVTIICKASQDINKYLDWYQQKLGEAPKLLIYNTNNLHTGIPSRFSGSGSGTDYTLTISSLQPEDVATYFCLQHISRWTFGGGTKLELKGGGGSGGGGSDYKDDDDKGGGGSC
notes: Full scFv-FLAG tagged with an extra C-terminal cys residue
B2: L111-CD45 scFv (scFv)
scFv: DIQMTQSPSFLSASVGDRVTINCKASQNINKYLDWYQQKHGEAPKLLIHYTNNLHTGIPSRFSGSGSGTDYTLTISSLQPEDVATYFCLQHSSRWTFGGGTKLELKGGGGSGGGGSGGGGSGGGGEVQLVESGGDLVQPGRSLKLSCIASGFTFTNFWMTWIRQVSGKGLEWVASISSSGGSIYYPDSVKDRFTISRDNAKNTLYLQMNSLRSEDTATYYCVKLHYYSGGGDAWGQGTSVTVSSGGGGSGGGGSDYKDDDDKGGGGSC
notes: Full scFv-FLAG tagged with an extra C-terminal cys residue; also called L11I-CD45; LIII-CD45 scFv
B3: L122-CD45 scFv (scFv)
scFv: EVKLLESGGGLVQPGGSLKLSCAASGFDFSRYWMSWVRQAPGKGLEWIGEINPTSSTINFTPSLKDKVFISRDNAKNTLYLQMSKVRSEDTALYYCARGNYYRYGDAMDYWGQGTSVTVSSAKGGGGSGGGGSGGGGSGGGGSDIALTQSPASLAVSLGQRATISCRASKSVSTSGYSYLHWYQQKPGQPPKLLIYLASNLESGVPARFSGSGSGTDFTLNIHPVEEEDAATYYCQHSRELPFTFGSGTKLEIKGGGGSGGGGSDYKDDDDKGGGGSC
notes: as for B1

molecular target: T1, His-tagged recombinant human CD45 (human, UniProt P08575 26-577, limits assumed); assay: assay not given; the affinity ELISA is described in Example 22
T1 construct: His-tagged
T1 sequence (looked up): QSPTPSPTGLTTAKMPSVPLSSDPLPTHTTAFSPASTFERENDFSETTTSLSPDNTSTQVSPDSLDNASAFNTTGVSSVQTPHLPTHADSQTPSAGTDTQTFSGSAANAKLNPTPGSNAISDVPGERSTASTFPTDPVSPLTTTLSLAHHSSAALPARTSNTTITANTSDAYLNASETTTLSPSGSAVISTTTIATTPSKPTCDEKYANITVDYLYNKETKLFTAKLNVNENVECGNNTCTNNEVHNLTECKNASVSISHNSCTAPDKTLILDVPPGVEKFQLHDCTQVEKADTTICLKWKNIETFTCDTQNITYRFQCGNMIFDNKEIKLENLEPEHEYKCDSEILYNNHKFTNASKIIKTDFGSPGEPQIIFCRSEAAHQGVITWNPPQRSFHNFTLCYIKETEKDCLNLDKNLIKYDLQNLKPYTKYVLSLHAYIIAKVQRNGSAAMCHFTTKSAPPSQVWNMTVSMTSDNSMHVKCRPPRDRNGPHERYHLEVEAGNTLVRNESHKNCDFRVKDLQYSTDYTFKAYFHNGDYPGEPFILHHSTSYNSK
Protocol: 20 nM His-tagged recombinant human receptors: CD117, CD45, CD46, CD133, and CD135, were immobilized onto nickel coated plates overnight at 4° C. in TBS buffer. Non-bound receptors were removed with three-washes of 1×TBS-T buffer. Blocking buffer was added to each well and incubated plate for 0.5 hr at room temperature with continuous shaking of 550 rpm. The plate was washed with 1X TBS-T. Serial dilutions of candidate ligands with concentrations ranged from 2 pM to 1 μM were added to each well and incubated for 1 hr at room temperature with continuous shaking of 550 rpm. After three washes of 1X TBS-T, horseradish peroxidase (HRP) enzyme liked FLAG antibody solution (1:200) was added to each well for 1 hr at room temperature with continuous shaking of 550 rpm. Chemiluminescent substrate was added and HRP enzymic activity was measured using an […]. The data was analyzed by non-linear regression to estimate binding affinity.

Kd, > 10 nM:
B1
B2
B3
